Measured values reported in US20190183138A1, “MILK COAGULANT AND METHOD FOR PRODUCING CHEESE” (CHINA AGRICULTURAL UNIVERSITY, priority 2017, published 2019).

System: 12% skim milk
Assay: Milk clotting activity (MCA) assay, curd formation time
Type: biochemical
Details: 12% skim milk in 10 mM CaCl2, pH 6.5, 37° C.; FIG. 5
Procedure: The MCA of the C. otophyllum proteases was determined using a modified method of He et al. (2011). One milliliter of substrate (12% skim milk in 10 mM CaCl2, pH 6.5) was incubated under 37° C. for 5 min, then 0.1 mL of the protease extracted solution was added. The time needed for curd formation was recorded and the MCA was expressed in Soxhlet units (SU). One SU of MCA was defined as the amount of the protease extracted solution required to clot 1 mL of substrate within 40 min at 37° C.
where V stands for the volume of the substrate (mL); v stands for the volume of the protease extract; and t stands for the milk-clotting time (s).
The C. otophyllum proteases were extracted as described by Huang et al. (2011) with some modifications. The C. otophyllum leaves were cut into pieces, mixed with a buffer at different solid-liquid ratios (i.e. ratio of mass to volume) for extraction, and then left for 2 h under 4° C., thus obtaining an extracted solution. After successive filtration through 4 layers of cheesecloth and a 0.22-μm membrane, the filtrate was concentrated by ultrafiltration with a 10-kDa molecular weight cut-off membrane at 8000 × g for 40 minutes at 4° C., with the retentate obtained as the concentrated solution of C. otophyllum proteases, which was assayed for protein concentration following the method of Bradford (1976) and curd formation time for 12% (w/v) skim milk.

B1: papain (protein, UniProt P00784 134-345, looked up)
Papain: IPEYVDWRQKGAVTPVKNQGSCGSCWAFSAVVTIEGIIKIRTGNLNEYSEQELLDCDRRSYGCNGGYPWSALQLVAQYGIHYRNTYPYEGVQRYCRSREKGPYAAKTDGVRQVQPYNEGALLYSIANQPVSVVLEAAGKDFQLYRGGIFVGPCGNKVDHAVAAVGYGPNYILIKNSWGTGWGENGYIRIKRGTGNSYGVCGLYTSSFYPVKN
notes: cysteine protease from Sigma-Aldrich used as comparison
MCA (milk-clotting activity): 100.2 SU/mg
